Ends that are not written are not given here.
B1: Glicentin: Enteroglucagon peptide comprising 69 amino acid residues (SEQ ID NO:1), prepared by genetic engineering procedure (protein)
chain: RSLQDTEEKSRSFSASQADPLSDPDQMNEDKRHSQGTFTSDYSKYLDSRRAQDFVQWLMNTKRNRNNIA

Key:
intestinal mucosa = experiment: Example 2: intestinal mucosal weight in rats after subcutaneous glicentin or control peptides; assay type: in vivo; settings: 1 nmol per rat s.c.; for Intestinal mucosal weight: third of four equal parts of small intestine from the duodenum
[1] = system: digestive tracts (gastric antrum, duodenum, jejunum); experiment: Example 3: motility of the digestive tracts after meal in dogs (strain gauge transducers); assay type: in vivo, dog; settings: 400 pmol/kg i.v. over 1 hour
Experimental: An experiment was performed as described below in order to examine the action of glicentin on a motility of the digestive tracts after meal.
Six hybrid dogs weighing 16-18 kg were sutured with strain gauge transducers (manufactured by Star Medical, F121S) at a site of the gastric antrum 4 cm from the pyloric ring, a site of the duodenum for the main incurrent pancreatic duct and a site of the jejunum 10 cm from the Treitz's ligamentum, respectively, to measure the contractile force intensity of the circular muscle. Recovery period for the suture was 2 weeks.
Three of the 6 dogs were intravenously given over 1 hour 15 ml of a physiological saline solution in which 400 pmol of glicentin had been dissolved per kg of bodyweight. The remaining three received an aqueous physiological solution containing no glicentin in the same way as above as a control for comparison. The dogs were fed on 15 g of a solid diet (SD®, manufactured by Oriental Yeast K. K.) and 15 g of Vitaone® (manufactured by Nihon Pet Food K. K. and Kyodo Shiryo K. K. ) per kg of bodyweight simultaneously with the intravenous administration.
Then, the motor activity of the digestive tracts and length of the post-feed period were measured. Intensity of the contraction in the post-feed period was integrated for the two-hour measurements and evaluated in comparison with the mean level of the signal peak in phase 3 motor activity of the intestinal tracts in hunger and taken as a motor index.

male BALB/c mice = experiment: Intraperitoneal administration of human glicentin to mice, appearance observed; assay type: in vivo, mouse; settings: 10 mg/kg intraperitoneally, male BALB/c mice (6 weeks age)
intestinal mucosae = experiment: Example 1: nutritional (trophic) effect of glicentin on the intestinal mucosae of rats fed an elemental nutrition; assay type: in vivo, rat; settings: 10 μg s.c. every 12 hours for 7 days
Experimental: An experiment was performed in male SD rats weighing 140-160 g which had been fed on standard food under light-dark condition of a cycle of 12 hours. The food which was replaced by an elemental nutrition (Elental®, Morishita-Roussel Japan) was taken ad lib., and remained unchanged until the experiment was finished. After feeding on the component nutrition for 3 days, administration of glicentin prepared as described below was started.
Gelatin was dissolved in warm water to a weight ratio of 16%, and the solution autoclaved and cooled to room temperature. To 40 ml of the gelatin solution was added a solution of 1 mg of glicentin in 10 ml of distilled water with stirring at room temperature. The mixture was divided into test tubes, freeze dried and stored for use.
The gelatin solution was subcutaneously given at a dose of 10 μg per glicentin every 12 hours for 7 days to examine a nutritional effect of glicentin on the intestinal mucosae. A similar gelatin solution containing no glicentin was given for the same period of time as a control for comparison. Twelve hours after completion of the final administration, the rats were sacrificed and subjected to removal of the small intestine in the region from the Treitz's ligamentum to the cecum. The removed small intestine was cut at the central site to separate it into the jejunum and the ileum. The lumen of each of the intestinal tracts was gently washed with an aqueous physiological saline solution. The intestinal tracts were longitudinally incised, respectively, and tissues were removed of a portion of the jejunum in proximity to the duodenum, a portion of the ileum in proximity to the cecum and a portion around the boundary between the jejunum and the ileum and fixed in a 3.7% formalin solution as the proximal, distal and middle sites of the small intestine, respectively. Mucosae were collected by ablation with a spatula from the remainder of the intestinal tracts and weighed, respectively.
The tissues fixed in the formalin solution were embedded in paraffin to form a preparation which was stained with hematoxylin-eosin and measured for height of the villi using an optical microscope.

[2] = post-feed contraction integrated over two hours relative to phase 3 peak

Molecule	Intestinal mucosal weight (intestinal mucosa) [g]	Length of post-feed period ([1]; simultaneously with feeding) [h]	Motor index, duodenum [1, 2]	Motor index, jejunum [1, 2]	Motor index, stomach vestibulum [1, 2]	change in appearance (male BALB/c mice)	Ileal mucosal weight per 100 g bodyweight (intestinal mucosae) [g/100 g bodyweight]	Jejunal mucosal weight per 100 g bodyweight (intestinal mucosae) [g/100 g bodyweight]	Length of small intestine per 100 g bodyweight (intestinal mucosae) [cm/100 g bodyweight]	Whole small intestinal mucosal weight per 100 g bodyweight (intestinal mucosae) [g/100 g bodyweight]	effect on weight of intestinal mucosa (in words) (intestinal mucosa; versus control)
Glucagon-like peptide-1: peptide hormone which occurs in a region of preproglucagon containing no glicentin (HAEGTFTSDVSSYLEGQAAKEFIAWLVKGR; ends and bridges not checked; UniProt P01275 98-127, looked up) [reference compound]	0.498 ± 0.042										
B1	0.614 ± 0.025	13.6 ± 1.0	0.675 ± 0.4	1.087 ± 0.2	0.878 ± 0.1	no change in appearance	0.57 ± 0.04	0.75 ± 0.08	66.4 ± 1.7	1.32 ± 0.03	significantly increases

Source: patent publication US5547938A, “Therapeutic agent for digestive tract diseases using glicentin” (Nisshin Flour Milling Co., Ltd., priority 1993, dated 1996)
